{"source": "paper PMC4747798", "molecular_target": "SH2 domain (143-249) of CSRC (UniProt P12931)", "assay": "ITC"}
{"substance": "human calmodulin (from UniProt P0DP23 1-149) (natural protein)", "values": [{"measurement": "stoichiometry N", "result": 1}]}
